Results: patent US20220025021A1 (BETH ISRAEL DEACONESS MEDICAL CENTER, published 2022)
Numbering of substitutions follows the chain as printed.

B1: MS-86 (antibody)
VH: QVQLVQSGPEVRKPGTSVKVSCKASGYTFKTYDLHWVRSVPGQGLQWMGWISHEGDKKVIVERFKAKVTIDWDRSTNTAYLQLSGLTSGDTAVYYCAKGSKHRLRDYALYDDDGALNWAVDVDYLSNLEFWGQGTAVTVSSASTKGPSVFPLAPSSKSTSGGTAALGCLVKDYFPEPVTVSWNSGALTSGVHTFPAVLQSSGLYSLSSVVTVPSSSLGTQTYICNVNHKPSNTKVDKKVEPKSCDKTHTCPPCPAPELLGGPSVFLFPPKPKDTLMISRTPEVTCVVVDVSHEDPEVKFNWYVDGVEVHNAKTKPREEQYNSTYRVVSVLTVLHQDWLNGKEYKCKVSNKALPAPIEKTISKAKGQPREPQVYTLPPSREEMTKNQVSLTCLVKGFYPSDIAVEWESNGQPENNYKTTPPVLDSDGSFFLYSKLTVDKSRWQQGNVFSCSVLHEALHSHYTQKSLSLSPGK
VL: DFVLTQSPHSLSVTPGESASISCKSSHSLIHGDRNNYLAWYVQKPGRSPQLLIYLASSRASGVPDRFSGSGSDKDFTLKISRVETEDVGTYYCMQGRESPWTFGQGTKVDIKRTVAAPSVFIFPPSDEQLKSGTASVVCLLNNFYPREAKVQWKVDNALQSGNSQESVTEQDSKDSTYSLSSTLTLSKADYEKHKVYACEVTHQGLSSPVTKSFNRGEC
B2: MS-80 (antibody, V domains shown)
VH: QVQLVQSGPEVRKPGTSVKVSCKAPGNTLKTYDLHWVRSVPGQGLQWMGWISHEGDKKVIVERFKAKVTIDRDRSTNTAYLQLSGLTSGDTAVYYCAKGSKHRLRDYALYDDDGALNWAVDVDYLSNLEFWGQGTAVTVSS
VL: DFVLTQSPHSLSVTPGESASISCKSSHSLIHGDRNNYLAWYVQKPGRSPQLLIYLASSRASGVPDRFSGSGSDKDFTLKISRVETEDVGTYYCMQGRESPWTFGQGTKVDIKR
B3: MS-85 (antibody, V domains shown)
VH: B2 VH with R72W
VL: B2 VL with F2I, D73G, K74T
B4: MS-87 (antibody, V domains shown)
VH: B2 VH with D71T
VL: B2 VL
B5: MS-83 (antibody, V domains shown)
VH: B2 VH with R72W, D113E
VL: B2 VL
B6: MS-84 (antibody, V domains shown)
VH: B2 VH with R72W, T87R
VL: B2 VL with H9L, S12P, S18P, R47Q, T85A, T90V
B7: MS-82 (antibody, V domains shown)
VH: B2 VH with R72W, T87R
VL: B2 VL
B8: MS-81 (antibody, V domains shown)
VH: B2 VH with R72W, Q82E
VL: B2 VL

Tests used:
Test in all cases: cell-based or functional assay
[1] = molecular target: HIV-1 pseudovirus SC05.8C11.2344 (HIV-1)
[2] = molecular target: HIV-1 pseudovirus 6952.v1.c20 (HIV-1)
[3] = molecular target: HIV-1 pseudovirus Ce1176_A3 (HIV-1)
[4] = molecular target: HIV-1 pseudovirus 263-8 (HIV-1)
[5] = molecular target: HIV-1 pseudovirus X1193_c1 (HIV-1)
[6] = molecular target: HIV-1 pseudovirus AC10.0.29 (HIV-1)

| Binder | IC50 (neutralization in TZM.bl cells) [1] | IC80 (neutralization in TZM.bl cells) [1] | IC50 (neutralization in TZM.bl cells) [2] | IC80 (neutralization in TZM.bl cells) [2] | IC50 (neutralization in TZM.bl cells) [3] | IC80 (neutralization in TZM.bl cells) [3] | IC50 (neutralization in TZM.bl cells) [4] | IC80 (neutralization in TZM.bl cells) [4] | IC50 (neutralization in TZM.bl cells) [5] | IC80 (neutralization in TZM.bl cells) [5] | IC50 (neutralization in TZM.bl cells) [6] | IC80 (neutralization in TZM.bl cells) [6] |
| --- | --- | --- | --- | --- | --- | --- | --- | --- | --- | --- | --- | --- |
| B1 | 1.62 µg/mL | 5.39 µg/mL | 2.55 µg/mL | > 25 µg/mL | 0.366 µg/mL | 4.25 µg/mL | 0.009 µg/mL | 0.05 µg/mL | 0.167 µg/mL | 0.371 µg/mL | 0.107 µg/mL | 0.741 µg/mL |
| B2 | 0.898 µg/mL | 3.15 µg/mL | > 25 µg/mL | > 25 µg/mL | 1.11 µg/mL | > 25 µg/mL | 0.033 µg/mL | 0.173 µg/mL | 0.137 µg/mL | 0.607 µg/mL | 0.054 µg/mL | 0.28 µg/mL |
| B3 | 0.425 µg/mL | 1.49 µg/mL | 0.393 µg/mL | > 25 µg/mL | 0.073 µg/mL | 1.72 µg/mL | 0.011 µg/mL | 0.043 µg/mL | 0.068 µg/mL | 0.507 µg/mL | 0.044 µg/mL | 0.242 µg/mL |
| B4 | 1.23 µg/mL | 5.17 µg/mL | > 25 µg/mL | > 25 µg/mL | 0.907 µg/mL | 25 µg/mL | 0.065 µg/mL | 0.361 µg/mL | 0.098 µg/mL | 0.277 µg/mL | 0.059 µg/mL | 0.328 µg/mL |
| B5 | 0.381 µg/mL | 1.88 µg/mL | 0.126 µg/mL | 3.09 µg/mL | 0.029 µg/mL | 0.405 µg/mL | 0.007 µg/mL | 0.05 µg/mL | 0.061 µg/mL | 0.308 µg/mL | 0.038 µg/mL | 0.259 µg/mL |
| B6 | 0.481 µg/mL | 1.74 µg/mL | 0.237 µg/mL | 18.2 µg/mL | 0.018 µg/mL | 0.567 µg/mL | 0.006 µg/mL | 0.03 µg/mL | 0.058 µg/mL | 0.285 µg/mL | 0.052 µg/mL | 0.257 µg/mL |
| B7 | 0.502 µg/mL | 1.8 µg/mL | 0.212 µg/mL | 23 µg/mL | 0.023 µg/mL | 0.635 µg/mL | 0.011 µg/mL | 0.033 µg/mL | 0.084 µg/mL | 0.411 µg/mL | 0.05 µg/mL | 0.267 µg/mL |
| B8 | 0.537 µg/mL | 2.01 µg/mL | 0.228 µg/mL | > 25 µg/mL | 0.044 µg/mL | 0.646 µg/mL | 0.013 µg/mL | 0.037 µg/mL | 0.113 µg/mL | 0.512 µg/mL | 0.044 µg/mL | 0.324 µg/mL |
